Test results from US20080131497A1, “Formulations of DNase and Methods of Use Thereof” (priority 2006, published 2008).
Changes are numbered by the printed parent chain.

Key:
[1] = administered by inhalation, CF patients; cited from earlier work
[2] = test system: colony forming units (CFU); conditions: administered by inhalation, CF patients; cited from earlier work
DNA [3] = test: Enzymatic activity of human DNase forms, methyl green (MG) assay; type: biochemical
Description: Kurnick, Arch. Biochem. 29:41 (1950). […] Thus, by combining the purified deamidated DNases and the purified non-deamidated DNase of the present invention in various proportions, it is possible to prepare pharmaceutical compositions of human DNase having any desired specific activity in the range between the specific activities of the individual components, as may be optimal for treating particular disorders.

DNA [4] = test: DNase viscosity assay (DNA digestion); type: biochemical; conditions: DNase 1 μg/mL, 2 mg/mL DNA, 1 mM Ca2+ and Mg2+
Experimental: At specific time points aliquots of samples were taken from the vials, diluted and analyzed for DNase activity. Enzymatic activity of DNase was determined by viscosity assay. DNA decomposition by DNase results in decrease of viscosity. DNase at 1 μg/mL normally can digest 2 mg/mL DNA resulting in decrease of viscosity from ˜25 cP (5 rpm) to 10 cP in ˜10 min (and to approaching 1 cP in longer time) in presence of 1 mM Ca^2+ and Mg^2+ ions. Kinetics of viscosity change due to degradation of DNA was measured by Brookfield D-II+ Pro viscosimeter at 5 rpm. Results showing increased stability for DNase when stored in the presence of empty liposomes or liposomal encapsulated antiinfective are presented in FIG. 2.
Activity was determined as a reciprocal value of a time to reduce viscosity in half, normalized to activity of standard DNase solution (A=T1/2^std/T1/2). The two curves in FIG. 3 illustrate an activity assay and how T1/2 is determined. The curves represent typical change in viscosity of DNA solution after DNase is added. v1 is viscosity at 1 minute, when the first measurement point is taken. T1/2 is the time interval after adding DNase required to reach viscosity level equal to half of v1.

DNA [5] = test: Enzymatic activity of doubly deamidated DNase; type: biochemical; conditions: deamidated at Asn 7 and Asn 74

NC[C@H]1O[C@H](O[C@H]2[C@H](O)[C@@H](O[C@H]3O[C@H](CO)[C@@H](O)[C@H](N)[C@H]3O)[C@H](N)C[C@@H]2N)[C@H](N)C[C@@H]1O [tobramycin, reference compound]
improvement in FEV1 [1]: approximately 10% | reduction in colony forming units (CFU) [2]: about 2 log units

B1: deamidated human DNase: human DNase deamidated at the asparagine residue at position 74 of native mature human DNase (protein, UniProt P24855 23-282, looked up, variant N74D)
Deoxyribonuclease-1: LKIAAFNIQTFGETKMSNATLVSYIVQILSRYDIALVQEVRDSHLTAVGKLLDNLNQDAPDTYHYVVSEPLGRDSYKERYLFVYRPDQVSAVDSYYYDDGCEPCGNDTFNREPAIVRFFSRFTEVREFAIVPLHAAPGDAVAEIDALYDVYLDVQEKWGLEDVMLMGDFNAGCSYVRPSQWSSIRLWTSPTFQWLIPDSADTTATPTHCAYDRIVVAGMLLRGAVVPDSALPFNFQAAYGLSDQLAQAISDHYPVEVMLK
modifications: deamidation
notes: human DNase deamidated at the asparagine residue at position 74 of native mature human DNase
enzymatic activity compared to non-deamidated human DNase (DNA [3]): just over half

B2: Pulmozyme: highly purified, commercially available solution of DNase (from Genentech); recombinant human DNase (protein, UniProt P24855 23-282, looked up)
Deoxyribonuclease-1: B1 Deoxyribonuclease-1 with D74N
improvement in FEV1 [1]: approximately 10%

B3: DNase: recombinant human deoxyribonuclease I, an enzyme which selectively cleaves DNA; standard in viscosity assay (protein, UniProt P24855 23-282, looked up)
Deoxyribonuclease-1: B1 Deoxyribonuclease-1 with D74N
time for decrease of viscosity from ~25 cP (5 rpm) to 10 cP (DNA [4]): ~10 min

B4: doubly deamidated DNase: human DNase deamidated at asparagine position 7 in addition to position 74 (protein, UniProt P24855 23-282, looked up, variant N7D N74D)
Deoxyribonuclease-1: B1 Deoxyribonuclease-1 with N7D
modifications: deamidation
enzymatic activity (DNA [5]): enzymatically inactive
